Results taken from paper PMC6168461, “Molecular architecture and regulation of BCL10-MALT1 filaments” (Nature Communications, 2018).
Values belong to the molecule of their own block, whether it stands above or below them.

What was measured:
[1] = target: human BCL10 (full length), GST-tag removed (human) (UniProt O95999); test: cryo-EM structure; helical filaments of BCL10 (full length)-MALT1 (T29-G722); complex at 1 mg/ml, PreScission protease overnight at 12 °C, filaments separated by SEC; core map at 4.9 Å, whole assembly at 5.9 Å
[2] = target: the molecule itself; test: as above

stoichiometry N [1]: 1
Molecule: human MALT1 isoform B (T29-G722), in the filament sample after PreScission treatment (domain or fragment)

B1: human BCL10 (full length), GST-tag removed (natural protein, UniProt O95999 1-233, looked up)
chain: MEPTAPSLTEEDLTEVKKDALENLRVYLCEKIIAERHFDHLRAKKILSREDTEEISCRTSSRKRAGKLLDYLQENPKGLDTLVESIRREKTQNFLIQKITDEVLKLRNIKLEHLKGLKCSSCEPFPDGATNNLSRSNSDESNFSEKLRASTVMYHPEGESSTTPFFSTNSSLNLPVLEVGRTENTIFSSTTLPRPGDPGAPPLPPDLQLEEEGTCANSSEMFLPLRSRTVSRQ
notes: BCL10 (B cell lymphoma 10), human, full length; Forms helical filaments together with MALT1 (T29-G722); only residues 10-115 are modelled in the map; also called B cell lymphoma 10; BCL10 wt; not shown: GST, N-terminal, cleaved
binding result [2]: binds
